From the supplement of paper PMC12636428

The sequences below were run on Saccharomyces cerevisiae (assay: transcriptional activation domain activity (GFP:mCherry ratio, weighted mean of sorted bins, harmonized to initial dataset scale) (arbitrary fluorescence ratio units); higher = stronger transcriptional activation). Settings: beta-estradiol 1 µM; induction time 4 h.
How it was run: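 Protein tiles carrying barcodes and fused to an estradiol-inducible synthetic transcription factor were placed at the URA3 locus of yeast diploids with a GFP reporter. Following 4 hours at 30 °C in SC with 1 uM beta-estradiol, cells were sorted into 8 GFP:mCherry bins, barcodes were sequenced, and tiles with fewer than 50 reads were discarded. Activation activity is given as the read-weighted mean of bin median fluorescence, averaged across barcodes and linearly mapped to the initial dataset scale.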

Sequence	transcriptional activation domain activity
VRDMPQADPGADRAFDASLESSMRKLLDGLAGTSWPAKTSVWVSKLRIACNHV	61200
GDAKSTLEQLGDDAKLVDEDGNLCDAECIVDKVKEVVKHAGRTTRKSLLKLGL	51100
NCLKLGCDCLGMIHYFDGFICSHKGLPIKLENVICMHEQDNGLMWKHTHFRTN	40800
TKIGTGMGEQMLSREYYYIGTQLPLDRFLTFYYAHPGFHVNNIFIMLSVQLFM	51100
HLCHLVPSLPFHLPFFFFEPFLSKTFTSFFLFFFLWLSPLNTNHPPIFLFFHT	80200
RLWLVRGPFTELFRRFLFSNIRFTSKVTIISYIGTYYAIGAAWIMTTANYLAI	47600
FYGYFNVLKIYLIKYRSSEVFFFFFDFLMYTENEWFITNLFFLLSFILHLGFF	60200
DKDEDAGAVEGEGGVVNANGKKTSGDEAGGERKKKQKQKEREKGGEDGAGKKG	47700
AVGYIWYIPFYHYNYSILRAGMMTNFFWASLCLVYSNIRPYSEIGIVYLLLCP	69800
STLQLASSFDITVNGPPVLCQGISITACASSSLVVALSWISCMIMLMYFFSLL	52800
KDSDDESEDSDAKSKKRKKRKRVVESDEGSGSEAESKKRKKKRKAEDSDVSGS	22600
NLMGSQARSNSQTPTASTIYEEAESQSSYLDDMFRTSQGGRPVTQNSISSIGQ	56100
KVDNGRKVDNGGKVDGRKVDNGGKVDDGRSVNDRGRADKGGGVVKGGRLVEGG	24900
HLLSPHIAPELIELLVVRTFLQPHPWPVPSCATTGFLRTLAWISRWAWRHSPL	43900
LQLAFYFGFIMVFVCSYMKRNTLVLLLFLLNNLCMVFRFYASDLLYQYWLIPV	61800
LSSFFLGLLHIGFSLVGYLSLLRISPNVFSVLPRDHTWFNISRFLVLCTILPL	59300
ERKRKREMAGEDDGRAEAKKVKKEKKEGEKEREKKGKKERKGKKEKEKRKKDM	16800
MFQAKLLQHMCDLHTNSGDGELKTLLTEILRMLLVTYIMAHVLTIERDTVHSV	47600
VIHLMNMGQVSILFIHRFIYGVVPLFEIVSCSFWPLLVSLWHLDYILIYLIMF	46300
GAGGAMGAALKHAVRDLAALSTAVSGAWVVEAITSSCSRRSIAVLVSRALAAM	42000
MLKLCFFCAFLFLFLIIYYIYIFCFFFPFSLPSFSFFSFIPALIFFFFVVVEP	48200

Sequence	transcriptional activation domain activity
PAHSLLELIQLMKRKAFVCWYLFTIVIVLLLLLWIFLSVNYFHCIKPINFNTD	34800
SKFASSGLFGVDVYSVWKRATEKISDGNNTTDSNQKHHPYHNHPSNDSGNEKN	41500
STHSVSLLVVWALRRIRVNLVKLAGITYMVPFPLLLVLVMIGSSSYLSWIFWI	64900
GEIVQIDLPLYGKSGQNRGKAALEYSDSLSAQKAASHMTGGQIDGAVVKVELS	66000
GEGAGGRDSTKTGAKAAGTGSTASKQPSNSASGGGQGKKKQPSATSAAGRKIA	59000
NEGCKIITVFNGIFGIVYSFAPMCYFCLCIRVFFFALYKRHWYYHALLSLFWL	70700
KNDCCFCYALGLFIRMDCFLRIFVCLCFDVGLYAIEFDLCSLLLACIHVHFSH	36300
MNKLFFKLRICVLIKIMLLQFVIIATIYNCNYFIIIVMYICLLLLLPFKLVYD	52100
MTILVILSILCLFQSYMGGMYSLDAHWVDIGLLRIYCNTLCIKMCQILMQFLL	22700
PTTSFFFWYRLYCSVLLSIGILISIPTLWILPSCFLPNHWKALWVVVLSFLGW	52400
MMLWWRWRWILLLMLMLMLRWRWWWHTSLWWRWSKCLLTRLLLLLLLWWWDSF	55000
ALKKKDGDKDSADFLSQLRMGKSVLHGVDKEGRPVVSVRVRLHKGGEQTEKSL	36600
TEYIYQGSNGLRWPPLAFPEHFVYPTEYIAHVYSWLILGLSYVYLLLLVFFYY	46100
AEEPAPEAPAPEEPAVEEAVPAEEAAPEAPAPVEEATPEKPVAAEEAAPEAPA	32600
CGQILLTICLLPLLFFFFFFFFWSKGVSPFLSHLSSVLLIMLGRIMQIVVGLW	38300
LLLESEPLFRCTLPTIRDNISAYLSFLQIPNGNATEELPQWMPYILLIFEILL	54400
EEEQPKKKSARKKKNAEDEDEDWDAKPKPKAKPKAKAAKKKAADGEEAGDAEK	26200
AATTAEPERKKSSKDRKSPEIVSEAKKSKDSPGEVKRSSSKREKEKEKEKSSS	37300
VPRHLFEKSTLKSLFYVGRHLGLTAAFYVFATHIDRIAWELCARFGYGHRIRG	20700
IGWWMVKSGLKDDLFAPGSHPRVSQYRLTAHLSTAFFCYSWMLLAGLSVLRTR	69800
ANEYNVVCSILVFWSDTVPLWGFFLIFWFFFLGFQLLGVESFGEAEFWLALLK	62200

Sequence	transcriptional activation domain activity
LTPFSPPHFPLFLPSILFSFPPPLSSHFLLFPYALSPLLLLLFPPLCSSQFTP	45700
FGASLPVFWKVIFHHCQLYFLVIVSTKAILVFTIYALEFPYSVMFIICHLVLV	37700
DYSIAQFRFLQRLLLVHGHWNYNRIAQYALATFWKEMLFYCIQLLYQRWNGYT	37500
SDDDEPPAKAAPKPKPRPVGKAKAKAREPEPESDGEVSAVQKKKKRKIGIFQS	37600
IKKGAASPSKKGGRGSAKAKKEESDDEDVKPAKKAKGAAAAKGKPKGKALKKE	24200
MQGGRLVIYLYYFLMEVFNVLFFLFLFRCWSLLPSALGGGLCYLFLVWGLLFC	67000
ESAAASSNQSSAPASAPTPNAPPSTANAEGGENKPKPSRRRGRGGGGGGQKQN	27400
EVYLLRFEQCLTRAMTLIRMFFVGSLRALTQDVSRRLAEKDVSQTAQTHLLYT	46300
NLMIIVLVVSNLRLMIENYRKYGVLICIQCHDYRQQDILYGLILYLLVPCHLF	39400
RQESSPRLPSPSHTQQRERNQTPCAARSSSSSPRRPRPQPQPSTSAPSSPASP	29400
ENKKEEPKSAKPTSKKAEKPVSKKADAETGEKRAADETKPAEKPASKKAKTDA	30800
MLLSIWCHHFTFLFFFFFFFDHRFFCFFYSHLFYAVSYSFLLLLLLLYELLLV	47100
GDLGFRDSIVTKVLQDARSNFLVSVSRLLRPIFVLMKKWVRLAVERLNICHSR	33300
NDFEKLEFFNKYAKVNTNNDVNENNDLWNSYLQSMDDTTGKNSGNYQQVDNDD	35700
LGVFGVALYVLSFFENFDSCHWCFHYDLWSPMAYILMRYSIEAILWSSRLALF	70600
MSSPKRITVLISGSGTNLQALMDAAGSSRLPNAQITHVISSRSAVKGLERAST	53800
PAEAPAAEPAAATEAPAETKDEKKEEKKEEKKEKKDEKKTEKSAKVGRRLSAR	45100
YQLASDRSADCGLLRLVLDAQTFGATAAVIVLDWARPWRFIKSLLRWMHVLST	42000
SLSFTPPHSNPPSPSFLLPFPLPFLLPFPPLSFPFPPPFAFPFTPFPPFPFSP	38700
